Assay results published in patent publication US20250270304A1 (PHENOMIC AI, published 2025).

T1: Latent Activin A (human, UniProt P08476 21-426, limits assumed)
T1 construct: also called INHBA latent
T1 sequence: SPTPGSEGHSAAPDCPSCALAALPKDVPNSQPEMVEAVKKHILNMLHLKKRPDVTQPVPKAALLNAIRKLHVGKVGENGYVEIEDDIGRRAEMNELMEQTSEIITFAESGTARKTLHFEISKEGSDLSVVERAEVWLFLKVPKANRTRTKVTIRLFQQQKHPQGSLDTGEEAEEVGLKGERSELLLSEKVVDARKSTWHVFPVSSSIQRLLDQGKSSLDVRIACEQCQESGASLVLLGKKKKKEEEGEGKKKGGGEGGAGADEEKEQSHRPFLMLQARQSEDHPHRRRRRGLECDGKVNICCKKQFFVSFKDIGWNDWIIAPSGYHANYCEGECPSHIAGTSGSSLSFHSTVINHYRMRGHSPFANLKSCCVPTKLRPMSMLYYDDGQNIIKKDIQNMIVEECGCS

T2: Inhibin A (Homo sapiens (Human), UniProt P05111 233-366; P08476 311-426)
T2 sequence 1: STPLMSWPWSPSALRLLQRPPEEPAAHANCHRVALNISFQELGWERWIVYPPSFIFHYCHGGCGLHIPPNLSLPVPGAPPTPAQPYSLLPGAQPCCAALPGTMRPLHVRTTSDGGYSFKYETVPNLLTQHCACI
T2 sequence 2: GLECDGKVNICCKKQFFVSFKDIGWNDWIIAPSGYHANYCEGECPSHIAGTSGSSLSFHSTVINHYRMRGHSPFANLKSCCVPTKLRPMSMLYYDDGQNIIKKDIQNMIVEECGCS

T3: Activin B (Homo sapiens (Human), UniProt P09529 293-407)
T3 construct: also called Mature Activin B; mature Activin B
T3 sequence: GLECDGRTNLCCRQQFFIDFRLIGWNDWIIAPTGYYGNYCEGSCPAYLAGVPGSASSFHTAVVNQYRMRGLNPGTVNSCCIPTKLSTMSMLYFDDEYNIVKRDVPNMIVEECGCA

T4: Mature Activin A (human, UniProt P08476 311-426)
T4 construct: also called active Activin A; INHBA mature
T4 sequence: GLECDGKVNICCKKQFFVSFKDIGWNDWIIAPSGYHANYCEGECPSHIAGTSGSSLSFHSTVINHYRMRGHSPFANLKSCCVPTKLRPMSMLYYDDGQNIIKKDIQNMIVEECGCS


What was measured:
Experiment in all cases: ELISA, coated antigen, OD450
[1] = target: T1, Latent Activin A
Description: (§1) Antibodies were re-expressed in 40 mL cultures of Expi293 cells and purified using protein G magnetic sepharose beads (Cytiva, Marlborough, MA) to provide larger quantities for secondary screening. Secondary screening included dose responses in both functional assays described above (SMAD nuclear localization and fibroblast activations assays) as well as in binding assays to the same antigens listed in Table 3. Plates were coated with 25 μL of 3 μg/mL antigen in 384-well Maxisorp plates overnight at 4° C. with agitation. The next day, the samples in the plates were blocked with 70 μL blocking buffer (PBS+1% BSA+0.1% Tween-20) for 2 hours at room temperature. Plates were then washed three times with 100 μL of wash buffer (PBS+0.1% Tween-20). Primary antibodies in Expi293 expression medium were diluted 1:3 in blocking buffer, 25 μL added per well, and the plates were incubated for an hour at room temperature with agitation. Plates were then washed three times and 25 μL of secondary antibody (goat anti-Human IgG, HRP conjugated; Jackson Immunoresearch) diluted 1:5000 in blocking buffer was added for 30 minutes at room temperature. The wells in the plates were washed six times with wash buffer and TMB substrate was added followed by 1 M H3PO4.

[2] = target: T2, Inhibin A
Description: as §1

[3] = target: T3, Activin B
Description: as §1

[4] = target: T4, Mature Activin A
Description: as §1

fold-change of OD 450 over negative control (BSA) [1] | fold-change of OD 450 over negative control (BSA) [2] | fold-change of OD 450 over negative control (BSA) [3] | fold-change of OD 450 over negative control (BSA) [4] | Binder
0.75 fold | 0.97 fold | 0.61 fold | – | AB330 (antibody, IgG1, V domains shown, also called mAb 330) VH: QVQLVQSGAEVKKPGASVKVSCKVSGYPSPATISWVRQAPGKGLEWMGWMNPKSGYTNYAQKFQGRVTMTEDTSTDTAYMELSSLKSEDTAVYYCATLHGSGLAFDIWGQGTMVTVSS VL: DIQMTQSPSSVSASVGDRVTITCRASQDIKSDLAWYQQKPGKAPKLLIYRASARESGVPSRFSGSGSGTDFTLTISSLQPEDFANYYCQQYRSFPWSFGGGTKVEIK
1 fold | 1.13 fold | 0.96 fold | 1.04 fold | AB431 (antibody, IgG1, V domains shown, also called mAb 431) VH: EVQLVESGGGLVQPGGSLRLSCAASGFTSSNHWMSWVRQAPGKGLELVASIGPKGLGTYYPDSVKGRFTISRDNAKNSLYLQMNSLRAEDTAVYYCARDVRGWRALYYYYGMDVWGQGTTVTVSS VL: DIVMTQSPLSLPVTPGEPASISCRSSQSLLHVTGYNYLHWYLQKPGQSPQLLIYGASSRAAGVPDRFSGSGSGTDFTLKISRVEAEDVGVYYCMQSTQWPHTFGGGTKVEIK
4.81 fold | 4.84 fold | 0.51 fold | 4.66 fold | AB426 (antibody, IgG1, V domains shown) VH: EVQLVESGGGLVQPGGSLRLSCAASGFTFSDHHMSWVRQAPGKGLELVASISPSGDFTYYPDSVKGRFTISRDNAKNSLYLQMNSLRAEDTAVYYCARDVSPVYYWGQGALVTVSS VL: DIVMTQSPLSLPVTPGEPASISCRSSQSLLHWYLQKPGQSPQLLIYMGSQRAAGVPDRFSGSGSGTDFTLKISRVEAEDVGVYYCQSGVTFGGGTKVEIK
2.35 fold | 1.18 fold | 0.75 fold | 3.18 fold | AB344 (antibody, IgG1, V domains shown) VH: EVQLVESGGGLVQPGGSLRLSCAASGYTFSNYGMSWVRQAPGKGLELVASISKSGSSIYYPDSVKGRFTISRDNAKNSLYLQMNSLRAEDTAVYYCARLPRLAWNYYYGMDVWGQGTTVTVSS VL: DIVMTQSPLSLPVTPGEPASISCRSSRSLVHGSGDNYLHWYLQKPGQSPQLLIYMASNRAPGVPDRFSGSGSGTDFTLKISRVEAEDVGVYYCVQTLQTPSTFGGGTKVEIK
4.09 fold | 0.81 fold | 0.98 fold | 6.71 fold | AB341 (antibody, IgG1, V domains shown) VH: EVQLVESGGGLVQPGGSLRLSCAASGYTFSNYGMSWVRQAPGKGLELVASISKSGSSIYYPDSVKGRFTISRDNAKNSLYLQMNSLRAEDTAVYYCARLPRLAWNYYYGMDVWGQGTTVTVSS VL: DIVMTQSPLSLPVTPGEPASISCRSSQSLLHSNEKNYLHWYLQKPGQSPQLLIYDASKRASGVPDRFSGSGSGTDFTLKISRVEAEDVGVYYCVQDLHTPFTFGGGTKVEIK
1.45 fold | – | – | 1.45 fold | AB439 (antibody, IgG1, V domains shown) VH: EVQLVQSGAEVKKPGASVKVSCKASGYTYTGYRISWVRQAPGQGLEWMGWIDPKSGRTNYAQKLQGRGTMTTDPSTSTAYMELRSLRSDDTAVYYCAREVKQWLVPGRGVYWFDPWGQGTLVTVSS VL: ESALTQPASVSGSPGQSITISCTGTNIGLRSVSWYQQHPGKAPKLMIYDTNIRSSGVSNRFSGSKSGNTASLTISGLQAEDEADYYCSSYTSSSTDVFGGGTKLTVL
7.44 fold | 0.86 fold | 0.51 fold | 7.58 fold | AB430 (antibody, IgG1, V domains shown) VH: EVQLVESGGGLVQPGGSLRLSCAASGFTLSNYPMSWVRQAPGKGLELVASTTSGSSTIYYPDSVKGRFTISRDNAKNSLYLQMNSLRAEDTAVYYCARGPDYYAPLRSYMDVWGKGTTVTVSS VL: DIVMTQSPLSLPVTPGEPASISCRSSQSLQQSEGRTYLHWYLQKPGQSPQLLIYDASKRASGVPDRFSGSGSGTDFTLKISRVEAEDVGVYYCMQVLRTPITFGGGTKVEIK
2.74 fold | 0.77 fold | 0.69 fold | 3.34 fold | AB448 (antibody, IgG1, V domains shown) VH: QVQLQESGPGLVKPSQTLSLTCTVSGLSLSNAKMGVNWIRQPPGKGLEWIGYVSTTGTTDYNPSLKSRVTMSVDTSKNQFSLKVNSVTAADTAVYYCARAGYPDVWGKGTTVTVSS VL: DIQMTQSPSSVSASVGDRVTITCRASQNIGAALAWYQQKPGKAPKLLIYGASTREYGVPSRFSGSGSGTDFTLTISSLQPEDFANYYCQQYTAYPLTFGGGTKVEIK
10.3 fold | 0.72 fold | 0.86 fold | 13.1 fold | AB366 (antibody, IgG1, V domains shown) VH: QVQLQESGPGLVKPSQTLSLTCTVSGYSLTDARIGVNWIRQPPGKGLEWIGYINPSGRTDYNPSLKSRVTMSVDTSKNQFSLKVNSVTAADTAVYYCARAGYPDVWGKGTTVTVSS VL: DIQMTQSPSSVSASVGDRVTITCRASQTISRSLAWYQQKPGKAPKLLIYDASSLAGGVPSRFSGSGSGTDFTLTISSLQPEDFANYYCQQYSSYPSLFGGGTKVEIK
5.93 fold | 3.09 fold | 0.72 fold | 6.34 fold | AB428 (antibody, IgG1, V domains shown) VH: EVQLVESGGGLVQPGGSLRLSCAASGFTSSNHWMSWVRQAPGKGLELVASIGPKGLGTYYPDSVKGRFTISRDNAKNSLYLQMNSLRAEDTAVYYCASIRDYGDKKGGSWFDPWGQGTLVTVSS VL: DIVMTQSPLSLPVTPGEPASISCRSSQSLLHSSGYNFLHWYLQKPGQSPQLLIYMATNRASGVPDRFSGSGSGTDFTLKISRVEAEDVGVYYCVQDLHTLPQFGGGTKVEIK
2.34 fold | 0.23 fold | 0.15 fold | 2.83 fold | AB438 (antibody, IgG1, V domains shown) VH: QVQLQESGPGLVKPSQTLSLTCTVSGVSLSNARLGVNWIRQPPGKGLEWIGYGSVTGSTDYNPSLKSRVTMSVDTSKNQFSLKVNSVTAADTAVYYCTTSYLVDTAMVTRWGQGTLVTVSS VL: EIVMTQSPATLSLSPGERATLSCRASQSLGTNLAWYQQKPGQAPRLLIYGASSRPSGIPARFSGSGSGTDFTLTISSLEPEDFAVYYCQQYDTHPLSFGGGTKVEIK
8.12 fold | 3.43 fold | 0.76 fold | 9.47 fold | AB345 (antibody, IgG1, V domains shown) VH: EVQLVESGGGLVQPGGSLRLSCAASGFTSSGYWMSWFRQAPGKGLELVASIGTAGVTYYPDSVKGRFTISRDNAKNSLYLQMNSLRAEDTAVYYCARGPHGPQQRLRFDPWGQGTLVTVSS VL: DIVMTQSPLSLPVTPGEPASISCRSSQSLLSSYGYHNLHWYLQKPGQSPQLLIYMGSIRAPGVPDRFSGSGSGTDFTLKISRVEAEDVGVYYCMQGTQAPRTFGGGTKVEIK
